We go through 72 sequences from the supplement of paper PMC10567573.

± gives the standard deviation.

The data set in a line: protein stability index of a GFP-peptide fusion (GPS, HEK-293T) (PSI 1-6); higher = more stable.
Setting [1] is: treatment: DMSO, c terminus: a fixed tail appended.
The mark [2] stands for this setting: treatment: MLN4924 1 uM, 8 h, c terminus: a fixed tail appended.
[3] abbreviates: treatment: DMSO, c terminus: native.
Setting [4] is: treatment: MLN4924 1 uM, 8 h, c terminus: native.
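Note: 24-mer peptide tiles fused after GFP, lentivirally expressed, FACS-sorted into six equal bins by GFP/DsRed ratio, decoded by Illumina sequencing, PSI is the read-weighted mean bin number.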

As to SLKAICTEIANCSLKVKFFDLERE [PLD5], the protein stability index was found to be 2.12 ± 0.17 under setting [1] and 2.26 ± 0.84 under setting [2].

For SLKEDLTQHKFICEQCGKCKCGEC [SPRY1], the protein stability index was 5.32 ± 0.36 under setting [1] and 5.22 ± 0.14 under setting [2].

In turn, SLVADNCVTLVWRMPDEDSKIDHY [FSD1] displayed a protein stability index under setting [1] of 2.62 ± 0.15 and a protein stability index under setting [2] of 2.94 ± 0.34.

For SLVMGSQTESALSKKLRAILPKQS [LCOR], the protein stability index runs as follows: under setting [1], 2.71 ± 0.21; under setting [2], 2.95 ± 0.37.

On to SLYILRGSARYDFSHEILRDEESF [ALKBH7], for which the protein stability index runs as follows: under setting [1], 2.63 ± 0.21; under setting [2], 2.2 ± 0.6.

On to SLYLLLVSCPKSEVRAKFKFSLLN [SPOPL], for which the protein stability index runs as follows: under setting [1], 2.56 ± 1.2; under setting [2], 2.49 ± 0.74.

Consider SMCEHHLVPFVGKVHIGYLPNKQV [GCH1], for which the protein stability index worked out at 2.16 ± 0.38 under setting [1] and 2.29 ± 0.39 under setting [2].

On to SMLVAGNDRVQTIITQLEDSRRVT [TRIM63], for which the protein stability index turned out to be 3.81 ± 0.077 under setting [1] and 3.72 ± 0.12 under setting [2].

For the sequence SMTTPRCYVGATVLRGRLYAIAGY [KLHL12], the protein stability index by setting is: under setting [1], 2.14 ± 0.36; under setting [2], 2.51 ± 0.58.

SNATATPSVRKKAGSFSRRLIKRF [C2CD2L]: the protein stability index stood at 3.47 ± 0.18 under setting [1] and 3.61 ± 0.18 under setting [2].

With SNLTSNLASLVSQGMIQLALSGAS [RETREG3], the protein stability index is 3.05 ± 0.12 under setting [1] and 3.15 ± 0.24 under setting [2].

For the sequence SNNNGRIKQLRSGGTPIRGALQIE [PTPRD], the protein stability index turned out to be 3.76 ± 0.33 under setting [1] and 3.85 ± 0.36 under setting [2].

For the sequence SNRHGHTCLMISCYKGHKEIAQYL [FEM1C], the protein stability index came to 2.68 ± 0.55 under setting [1] and 2.43 ± 0.39 under setting [2].

As to SPAAPYFLGSSFSPVRCGGPGDAS [WEE1], the protein stability index is, setting by setting: under setting [1], 3.06 ± 0.3; under setting [2], 3.17 ± 0.35.

Take SPHEMLQAVVLCSKKTFQITKQGD [USP39]: the protein stability index was 3.34 ± 0.39 under setting [1] and 3.4 ± 0.28 under setting [2].

For SPISSISPGLHSFTDHQRLMKRRK [KCNK9], the protein stability index reads like this: under setting [1], 4.7 ± 0.28; under setting [2], 4.8 ± 0.16.

SPREGEELKPEDKDPRDPEESKEP [GNAS]: the protein stability index by setting is: under setting [1], 5.78 ± 0.14; under setting [2], 5.71 ± 0.26.

As for SPSSDLDTDAEGDDFELLDQSELS [RETREG3], the protein stability index under setting [1] turned out to be 5.56 ± 0.13 and the protein stability index under setting [2] amounted to 5.38 ± 0.12.

For SQAQETTIIASNAEEAEILHSACG [TOR1AIP2], the protein stability index stood at 5.26 ± 0.29 under setting [1] and 5.21 ± 0.27 under setting [2].

In the case of SQNIAAETRAEDPPWFEGLESRFQ [DFFB], the protein stability index is, setting by setting: under setting [1], 4.46 ± 0.13; under setting [2], 4.49 ± 0.079.

For SRLLLLEQELKTVTYSLLKRLKER [SMAD6], the protein stability index by setting is: under setting [1], 2.77 ± 0.34; under setting [2], 2.55 ± 0.49.

Turning to SRLRFLNLGRMIDWVPVESLLRPL [ZER1], the protein stability index is, setting by setting: under setting [1], 2.16 ± 0.13; under setting [2], 2.24 ± 0.25.

Turning to SRLVAGEYLSFFDFSGLTLDGALR [PSD2], the protein stability index under setting [1] worked out at 1.93 ± 0.094 and the protein stability index under setting [2] is 2.3 ± 0.29.

SRSAAQDLDRMGVMTLPSDLRKHR [PPFIA4] showed a protein stability index under setting [1] of 4.54 ± 0.48 and a protein stability index under setting [2] of 5.22 ± 0.1.

For the sequence SRSTSFRGGMGSGGLATGIAGGLA [KRT18], the protein stability index amounted to 3.3 ± 0.066 under setting [1] and 3.33 ± 0.37 under setting [2].

Regarding SRTCIGSSHSRGPLSWAPCGPIAG, the protein stability index came to 2.76 ± 0.18 under setting [1] and 2.84 ± 0.36 under setting [2].

For the sequence SSASEGDEDLRRQMQDDEQKTRLL [PALM], the protein stability index by setting is: under setting [1], 5.51 ± 0.15; under setting [2], 5.49 ± 0.19.

Regarding SSEKKRQSSADGSQPPKKKPKTTN [RBBP5], the protein stability index by setting is: under setting [1], 5.24 ± 0.37; under setting [2], 5.28 ± 0.3.

For the sequence SSKAHTSRFISANLPCNKFKNRLV [PTPRD], the protein stability index under setting [1] turned out to be 2.58 ± 0.35 and the protein stability index under setting [2] worked out at 2.59 ± 0.26.

SSLDLSYYPTSSSTSFMSSSSSSS [EMD] displayed a protein stability index under setting [1] of 3.99 ± 0.06 and a protein stability index under setting [2] of 3.84 ± 0.34.

SSLEEIVEKQGDTIEYLKRHNALL [TMEM192]: the protein stability index by setting is: under setting [1], 3.82 ± 0.38; under setting [2], 3.92 ± 0.16.

For the sequence SSLPGHAAKTLPGGAGKGRTPSAF [EHMT1], the protein stability index reads like this: under setting [1], 3.98 ± 0.34; under setting [2], 4.26 ± 0.32.

Consider SSPMVQVDEKGEKVRPSHKRCIVI [LARP4], for which the protein stability index is, setting by setting: under setting [1], 2.69 ± 0.16; under setting [2], 2.63 ± 0.12.

For SSRQTRPILKEQSSSSFSQGQSS [KRT16], the protein stability index runs as follows: under setting [3], 5.3 ± 0.29; under setting [4], 5.33 ± 0.25.

As for SSSPPGTPSPADAKAPPTACYAGA [CEBPB], the protein stability index was 5.14 ± 0.14 under setting [1] and 4.91 ± 0.29 under setting [2].

As to SSSTLMSSELETTSFFDSDEDDST [DVL3], the protein stability index is, setting by setting: under setting [1], 5.54 ± 0.38; under setting [2], 5.61 ± 0.14.

STPVCSQKVVVTTPLHRDKTPLHQ [MYBL2]: the protein stability index under setting [1] stood at 3.92 ± 0.22 and the protein stability index under setting [2] turned out to be 4.26 ± 0.24.

Take STVQILTEGFPPGGGNARATGMFL [ZFYVE21]: the protein stability index is, setting by setting: under setting [1], 2.16 ± 0.19; under setting [2], 2.27 ± 0.35.

On to SVDLMLGLPAQQVGPWLGQLQELL [RSAD1], for which the protein stability index is 2.38 ± 0.1 under setting [1] and 2.38 ± 0.45 under setting [2].

As to SVKIIFKLPNDSRVERRFHFSQSL [FAF2], the protein stability index amounted to 2.72 ± 0.67 under setting [1] and 2.76 ± 0.55 under setting [2].

Turning to SVPLSLCVSSHLALPAQHHWESW [CLPTM1], the protein stability index is 2.22 ± 0.1 under setting [3] and 2.33 ± 0.25 under setting [4].

SVVSYTLKDIHDDQDYLHSLGKAR [FLOT1] yielded a protein stability index under setting [1] of 3.43 ± 0.3 and a protein stability index under setting [2] of 3.54 ± 0.28.

SWQDLKDHMREAGDVCYADVYRDG [SRSF1]: the protein stability index by setting is: under setting [1], 3.96 ± 0.68; under setting [2], 4.21 ± 0.12.

As to SYNITVTATDGGSPPLSTEAHFML [PCDHGA10], the protein stability index stood at 2.03 ± 0.36 under setting [1] and 2.09 ± 0.4 under setting [2].

Take TARRSKRERREEDRAPAEQVPRSP [PWWP2B]: the protein stability index was found to be 5.38 ± 0.26 under setting [1] and 5.16 ± 0.45 under setting [2].

TCLTGVLGVGLGVEISRRLRHSNP [SPNS1]: the protein stability index is, setting by setting: under setting [1], 2.36 ± 0.22; under setting [2], 2.09 ± 0.36.

Turning to TDRKLDDGDDKVFRRAPSWRKRFR [PPFIA4], the protein stability index is, setting by setting: under setting [1], 4.38 ± 0.082; under setting [2], 4.51 ± 0.47.

Consider TFFLRTDAETPPRFTRTPVDQTGV [PTPRD], for which the protein stability index is, setting by setting: under setting [1], 3.42 ± 0.16; under setting [2], 3.28 ± 0.45.

TFHHPTYGSCYTVDGVWTAQRPGI [SCNN1D]: the protein stability index is 2.61 ± 0.41 under setting [1] and 2.61 ± 0.29 under setting [2].

Turning to TGCVLGSSGKVLPKWGWEQLEVTC [POMT2], the protein stability index runs as follows: under setting [1], 2.07 ± 0.36; under setting [2], 2.25 ± 0.27.

For TGERPYECNECGKAFSRSSGLFNH [ZSCAN9], the protein stability index came to 2.48 ± 0.4 under setting [1] and 2.6 ± 0.37 under setting [2].

With TGFRTISSLEEIVEKQGDTIEYLK [TMEM192], the protein stability index is 3.98 ± 0.41 under setting [1] and 4 ± 0.2 under setting [2].

On to TGSPARLSLRQTGSPGMIYSTRYG [KCNAB2], for which the protein stability index reads like this: under setting [1], 3.15 ± 0.45; under setting [2], 3.12 ± 0.45.

As for THSSVVLQGFDQLRLEGLLCDVTL [KLHL13], the protein stability index under setting [1] is 2.43 ± 0.33 and the protein stability index under setting [2] was determined as 2.19 ± 0.19.

Consider THTKEQILELVVLEQFVAILPKEL [ZNF24], for which the protein stability index under setting [1] worked out at 3.04 ± 0.72 and the protein stability index under setting [2] was 2.54 ± 0.66.

In the case of TIKRSSQTGEWQNIAIMTEEPELS [GFOD1], the protein stability index is, setting by setting: under setting [1], 4.42 ± 0.33; under setting [2], 4.26 ± 0.43.

TKETEQLRSQLQTLKQQHQQAVEQ [CCDC89]: the protein stability index by setting is: under setting [1], 4.9 ± 0.19; under setting [2], 4.87 ± 0.21.

Regarding TKNKSKHALRKKQLKRQKRDYIHS [FAM9B], the protein stability index is 3.71 ± 0.1 under setting [1] and 3.76 ± 0.1 under setting [2].

As to TKPSKSAALHIDLCKATSPADALQ [INTS4], the protein stability index runs as follows: under setting [1], 3.91 ± 0.1; under setting [2], 3.84 ± 0.29.

Turning to TLITAVELERFVNLHSLALDFCDF [FBXO33], the protein stability index runs as follows: under setting [1], 2.47 ± 0.28; under setting [2], 2.95 ± 1.3.

Consider TLKKFKGDLAYRRQEYQKALQEYS [C8orf76], for which the protein stability index came out at 2.82 ± 0.29 under setting [1] and 2.79 ± 0.31 under setting [2].

As to TLSKPSPMPVSQECFETLRGDERI [CHGA], the protein stability index reads like this: under setting [1], 4.81 ± 0.26; under setting [2], 4.75 ± 0.17.

As to TLYTAKKYAVPALEAHCVEFLTKH [BTBD1], the protein stability index reads like this: under setting [1], 2.7 ± 0.28; under setting [2], 2.48 ± 0.12.

Take TNHIAPHARNGLSLKEEHRAYDLL [IKZF1]: the protein stability index under setting [1] stood at 3.43 ± 0.28 and the protein stability index under setting [2] came out at 3.64 ± 0.11.

TNSDVLAQQFALMAPLLFNGCRSG [DCAF4] returned a protein stability index under setting [1] of 2.23 ± 0.27 and a protein stability index under setting [2] of 2.14 ± 0.3.

On to TPDQKYSMDNTPHTPTPFKNALEK [MYBL2], for which the protein stability index runs as follows: under setting [1], 5 ± 0.2; under setting [2], 5.22 ± 0.2.

On to TPGLGVVAVLLLFLVVREPPRGAV [SPNS1], for which the protein stability index stood at 2.69 ± 0.44 under setting [1] and 3.28 ± 0.6 under setting [2].

On to TPHMLLDLSDLLQVDSLRPASFPT [BRF1], for which the protein stability index was 2.28 ± 0.2 under setting [1] and 2.43 ± 0.2 under setting [2].

On to TPPSSRRVWSPPRVHKVEMGFGGG [ZBTB22], for which the protein stability index came to 3.22 ± 0.4 under setting [1] and 3.33 ± 0.081 under setting [2].

As to TPSEEHMKNKNNVTEFILLGLTQN [OR4A15], the protein stability index turned out to be 3.26 ± 0.33 under setting [1] and 3.21 ± 0.21 under setting [2].

Turning to TQKLEEIKENAQDTMRQINKKGFW [TOR1AIP2], the protein stability index turned out to be 3.61 ± 0.16 under setting [1] and 4.08 ± 0.36 under setting [2].

Consider TQMIREGGARSLWRGNGINVLKIA [SLC25A25], for which the protein stability index turned out to be 2.72 ± 0.25 under setting [1] and 2.77 ± 0.21 under setting [2].
